Patent CN1948343A (BEIJING ANBOTE GENE ENGINEERIN, dated 2007)

B1: 抗TNF-α鼠源单链抗体 TNF-scFv (scFv, part only; not given: C-terminal tail of construct, part only)
scFv, part: QIQLVQSGPELKKPGETVKISCKASGYTFTHYGMNWVKQAPGKGLKWMGWINTYTGEPTYADDFKEHFAFSLETSASTVFLQINNLKNEDTATYFCARERGDAMDYWGQGTSVTVSSTSGGGGSGGGGSGGGGSSRSIVMTQTPKFLLVSAGDRVTITCTASQSVSNDVVWYQQKPGQSPKMLMYSAFNRYTGVPDRFTGRGYGTDFTFTISSVQAEDLAVYFCQQDYNSPRTFGGGTKLEIK
B2: 抗TNF-α基因工程四价单链抗体 TNF-TeAb (scFv)
chain: B1 scFv, part

Experiments:
重组人TNF-α [1] = target: T1, 重组人TNF-α (human, UniProt P01375 77-233); assay: competition ELISA: inhibition of binding of 1 μg/ml TNF-α to coated L929 TNF receptor extract
重组人TNF-α [2] = target: T1, 重组人TNF-α; assay: cell-based or functional assay

T1 sequence (P01375 77-233 limits assumed): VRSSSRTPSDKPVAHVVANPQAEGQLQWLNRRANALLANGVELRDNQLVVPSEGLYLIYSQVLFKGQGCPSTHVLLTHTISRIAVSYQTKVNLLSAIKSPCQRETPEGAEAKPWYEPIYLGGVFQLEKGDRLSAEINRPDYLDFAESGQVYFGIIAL

Row | IC50 (重组人TNF-α [1]) [nM] | MTT法: 抑制TNF-α对L929细胞的细胞毒作用, 50%抑制的浓度(IC50) (重组人TNF-α [2]) [nM] | MTT法: 抑制TNF-α对L929细胞的细胞毒作用, 50%的抑制浓度(IC50) (重组人TNF-α [2]) [nM] | Binder
1 | 3200 | 40 | – | B1
2 | ~400 | – | 2.5 | B2
